Laboratory results from patent publication US20250388669A1 (published 2025).

Assays:
[1] = biological target: T1, CD137 (UniProt Q07011 24-186, limits assumed); experiment: FCM or ELISA (graded summary table)
T1 construct: also called 4-1BB

[2] = biological target: T2, CD19 (UniProt P15391 20-556, limits assumed); experiment: FCM or ELISA (graded summary table)
T2 construct: whole, on cells
T2 sequence (looked up): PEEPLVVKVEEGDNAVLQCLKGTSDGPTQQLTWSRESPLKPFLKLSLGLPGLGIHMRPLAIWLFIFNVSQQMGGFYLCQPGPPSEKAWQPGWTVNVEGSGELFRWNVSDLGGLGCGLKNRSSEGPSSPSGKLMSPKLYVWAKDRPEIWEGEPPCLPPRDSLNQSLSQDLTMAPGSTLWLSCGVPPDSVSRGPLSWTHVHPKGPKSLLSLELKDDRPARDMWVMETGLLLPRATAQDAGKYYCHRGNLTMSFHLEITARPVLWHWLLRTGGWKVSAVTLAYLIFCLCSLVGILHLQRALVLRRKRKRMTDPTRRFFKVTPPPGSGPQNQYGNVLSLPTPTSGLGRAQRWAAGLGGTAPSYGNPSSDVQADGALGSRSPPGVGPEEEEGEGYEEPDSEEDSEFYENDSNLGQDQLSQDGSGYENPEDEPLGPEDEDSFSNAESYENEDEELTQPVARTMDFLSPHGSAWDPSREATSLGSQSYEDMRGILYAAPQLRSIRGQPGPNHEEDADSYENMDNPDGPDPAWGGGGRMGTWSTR

B1: Ly2326 (bispecific antibody, human IgG1, kappa)
chain 1: QVQLQQSGAELVRPGSSVKISCKASGYAFSSYWMNWVKQRPGQGLEWIGQIWPGDGDTNYNGKFKGKATLTADESSSTAYMQLSSLASEDSAVYFCARRETTTVGRYYYAMDYWGQGTTVTVSSASTKGPSVFPLAPSSKSTSGGTAALGCLVKDYFPEPVTVSWNSGALTSGVHTFPAVLQSSGLYSLSSVVTVPSSSLGTQTYICNVNHKPSNTKVDKKVEPKSCDKTHTCPPCPAPEAAGPSVFLFPPKPKDTLMISRTPEVTCVVVDVSHEDPEVKFNWYVDGVEVHNAKTKPREEQYNSTYRVVSVLTVLHQDWLNGKEYKCKVSNKALPAPIEKTISKAKGQPREPQVYTLPPSREEMTKNQVSLWCLVKGFYPSDIAVEWESNGQPENNYKTTPPVLDSDGSFFLYSKLTVDKSRWQQGNVFSCSVMHEALHNHYTQKSLSLSPGGGGGSGGGGSGGGGSGGGGSQVQLVQSGAEVKKPGASVKVSCKASGYTFAGFEMHWVRQAPGQGLEWMGAIDPKTGGTDYNQKFKDRVTMTRDTSISTAYMELSRLRSDDTAVYYCARDLGYFDVWGQGTLVTVSS
chain 2: QVQLQQSGAELVRPGSSVKISCKASGYAFSSYWMNWVKQRPGQGLEWIGQIWPGDGDTNYNGKFKGKATLTADESSSTAYMQLSSLASEDSAVYFCARRETTTVGRYYYAMDYWGQGTTVTVSSASTKGPSVFPLAPSSKSTSGGTAALGCLVKDYFPEPVTVSWNSGALTSGVHTFPAVLQSSGLYSLSSVVTVPSSSLGTQTYICNVNHKPSNTKVDKKVEPKSCDKTHTCPPCPAPEAAGPSVFLFPPKPKDTLMISRTPEVTCVVVDVSHEDPEVKFNWYVDGVEVHNAKTKPREEQYNSTYRVVSVLTVLHQDWLNGKEYKCKVSNKALPAPIEKTISKAKGQPREPQVYTLPPSREEMTKNQVSLSCAVKGFYPSDIAVEWESNGQPENNYKTTPPVLDSDGSFFLVSKLTVDKSRWQQGNVFSCSVMHEALHNRFTQKSLSLSPGGGGGSGGGGSGGGGSGGGGSDIQMTQSPSSLSASVGDRVTITCRASQDIRSNLNWYQQKPGGAVKLLIYYTSRLHSGVPSRFSGSGSGTDYTLTISSLQPEDFATYFCQQSEKLPRTFGGGTKVEIR
light: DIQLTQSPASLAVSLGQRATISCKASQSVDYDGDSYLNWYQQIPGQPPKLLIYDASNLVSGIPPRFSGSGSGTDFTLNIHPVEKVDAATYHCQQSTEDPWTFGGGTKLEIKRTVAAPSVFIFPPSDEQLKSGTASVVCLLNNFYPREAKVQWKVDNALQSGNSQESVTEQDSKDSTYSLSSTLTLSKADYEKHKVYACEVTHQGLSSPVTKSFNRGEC
notes: Bispecific CD19 (two Fabs) / CD137 (terminal Fv)
B1: binds [1]; binds [2].
